Measurements published in article PMC11999606, “Dynein light chains 1 and 2 are auxiliary proteins of pH-sensitive Kir4.1 channels” (The Journal of Biological Chemistry, 2025).

B1: full-length Kir4.1 protein with the ΔTQT deletion (natural protein, UniProt P78508 1-379, looked up)
chain: MTSVAKVYYSQTESRPLMGPGIRRRRVLTKDGRSNVRMEHIADKRFLYLKDLWTTFIDMQWRYKLLLFSATFAGTWFLFGVVWYLVAVAHGDLLELDPPANHTPCVVQVHTLTGAFLFSLESQTTIGYGFRYISEECPLAIVLLIAQLVLTTILEIFITGTFLAKIARPKKRAETIRFSQHAVVASHNGKPCLMIRVANMRKSLLIGCQVTGKLLQTHQTKEGENIRLNQVNVTFQVDTASDSPFLILPLTFYHVVDETSPLKDLPLRSGEGDFELVLILSGTVESTSATCQVRTSYLPEEILWGYEFTPAISLSASGKYIADFSLFDQVVKVASPSGLRDSTVRYGDPEKLKLEESLREQAEKEGSALSVRISNV
notes: Kir4.1 (KCNJ10), full length, with the three TQT residues (13-15) deleted; also called Kir4.1-ΔTQT; not shown: GFP, N-terminal, kept
B2: N-terminal FLAG-GFP-tagged full-length Kir4.1 (natural protein, UniProt P78508 1-379, looked up)
chain: MTSVAKVYYSQTTQTESRPLMGPGIRRRRVLTKDGRSNVRMEHIADKRFLYLKDLWTTFIDMQWRYKLLLFSATFAGTWFLFGVVWYLVAVAHGDLLELDPPANHTPCVVQVHTLTGAFLFSLESQTTIGYGFRYISEECPLAIVLLIAQLVLTTILEIFITGTFLAKIARPKKRAETIRFSQHAVVASHNGKPCLMIRVANMRKSLLIGCQVTGKLLQTHQTKEGENIRLNQVNVTFQVDTASDSPFLILPLTFYHVVDETSPLKDLPLRSGEGDFELVLILSGTVESTSATCQVRTSYLPEEILWGYEFTPAISLSASGKYIADFSLFDQVVKVASPSGLRDSTVRYGDPEKLKLEESLREQAEKEGSALSVRISNV
notes: Kir4.1 (KCNJ10), full length; also called F-GFP-Kir4.1; Kir4.1-WT; source: in detergent-solubilized membrane fraction, and purified; not shown: FLAG, N-terminal, kept; GFP, N-terminal, kept
B3: full-length Kir4.1, N-terminal tags cleaved off (natural protein, UniProt P78508 1-379, looked up)
chain: B2 chain
notes: Kir4.1 (KCNJ10) inwardly rectifying potassium channel, full length; Purified as a tetramer that carries copurified endogenous LC8; also called KCNJ10; Kir4.1 WT; source: purified (FLAG resin, eluted by HRV 3C cleavage, Superose 6 SEC); not shown: FLAG, N-terminal, cleaved; GFP, N-terminal, cleaved

Molecular target: the molecule itself
Experiment: SEC; purified Kir4.1 proteins on a Superose 6 column in glyco-diosgenin-containing buffer; pH 8.0 and pH 6.0 for the WT without tags; tetramer peak

Stoichiometry N, 4:
B1
B2
B3
